Results published in patent publication US20140079691A1.
One block for each binder: values may come before it.

What was measured:
Assay in all cases: method not stated in Example 7
β-NGF = biological target: β-NGF
IL-17A = biological target: IL-17A
[1] = biological target: C345C subunit of complement protein C5
Sequence of C345C subunit of complement protein C5 (P01031 1532-1676): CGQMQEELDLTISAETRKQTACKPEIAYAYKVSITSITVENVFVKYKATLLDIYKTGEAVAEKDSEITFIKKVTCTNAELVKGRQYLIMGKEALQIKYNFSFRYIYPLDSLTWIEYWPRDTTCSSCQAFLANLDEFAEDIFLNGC

Sequence of β-NGF (P01138 122-241): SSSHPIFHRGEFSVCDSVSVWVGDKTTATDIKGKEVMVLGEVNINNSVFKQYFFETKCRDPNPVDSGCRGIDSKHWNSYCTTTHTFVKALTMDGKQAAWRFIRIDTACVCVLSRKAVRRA
Sequence of IL-17A (Q16552 24-155): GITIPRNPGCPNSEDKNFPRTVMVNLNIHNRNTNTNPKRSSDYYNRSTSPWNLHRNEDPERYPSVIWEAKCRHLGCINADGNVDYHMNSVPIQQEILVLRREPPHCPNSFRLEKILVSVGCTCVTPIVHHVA

Kd (β-NGF): 12 nM | fold loss in β-NGF binding affinity (against the parental antibody, APE579 in Table 3) (β-NGF): 2 fold
B1: APE1661 (antibody, human IgG1, kappa, V domains shown)
VH: EVQLVESGGGLVQPGGSLILSCAASGFTFTTYNMNWVRQAPGKGLEWVCVISTGGSNTYYADSVKGRFTCSRDNSKNTLYLQMNSLRAEDTAVYYCARDGGYSSSTLYAMDAWGAGTTVTVSS
VL: DVVLTQSPLSLAVLLGQPASISCRASKNIYNALAWYQQRPGQSPRLLIYNTDRLHTGVPDRFSGSGSGTDFTLKISRVEAEDVGVYFCQHYFDYPRTFGGGTKLEIKR

Kd (IL-17A): 0.21 nM | fold improvement in antigen binding affinity (against the parental antibody, APE508 in Table 3) (IL-17A): 1.6 fold
B2: APE1662 (antibody, human IgG1, kappa, V domains shown)
VH: EVQLVESGGGLVQPGGSLILSCAASGFTFSNHWMNWVRQAPGKGLEWVCAAINEDGSEKYYVGSVKVRFTCSRDNSKNTLYLQMNSLRAEDTAVYYCARDYYDILTDYYIHYWYFDLWGAGTTVTVSS
VL: DVVLTQSPLSLAVLLGQPASISCRASQSVSSSYLAWYQQRPGQSPRLLIYGASSRATGVPDRFSGSGSGTDFTLKISRVEAEDVGVYFCQQYGSSPLTFGGGTKLEIKR

Kd [1]: 5 nM
B3: APE1775 (antibody, human IgG1, kappa, V domains shown)
VH: EVQLVESGGGLVQPGGSLILSCAASGFTFSSYAMTWVRQAPGKGLEWVCAISGSGSTYYADSVKGRFTCSRDNSKNTLYLQMNSLRAEDTAVYYCARRGLRYNYFDYWGAGTTVTVSS
VL: DVVLTQSPLSLAVLLGQPASISCRASQSVSSSYLAWYQQRPGQSPRLLIYGASSRATGVPDRFSGSGSGTDFTLKISRVEAEDVGVYFCQQYGRSLEYTFGGGTKLEIKR
